Results reported in US20180057604A1.

Legend:
[1] = target: cyno TfR extracellular domain (analogous construct to human TfR ecd) (cynomolgus monkey); assay: SPR, bispecific antibody
[2] = target: human TfR extracellular domain with N-terminal His tag (human) (UniProt P02786); assay: SPR, bispecific antibody
human TfR extracellular domain with N-terminal His tag (human), sequence (P02786 89-760 G142S): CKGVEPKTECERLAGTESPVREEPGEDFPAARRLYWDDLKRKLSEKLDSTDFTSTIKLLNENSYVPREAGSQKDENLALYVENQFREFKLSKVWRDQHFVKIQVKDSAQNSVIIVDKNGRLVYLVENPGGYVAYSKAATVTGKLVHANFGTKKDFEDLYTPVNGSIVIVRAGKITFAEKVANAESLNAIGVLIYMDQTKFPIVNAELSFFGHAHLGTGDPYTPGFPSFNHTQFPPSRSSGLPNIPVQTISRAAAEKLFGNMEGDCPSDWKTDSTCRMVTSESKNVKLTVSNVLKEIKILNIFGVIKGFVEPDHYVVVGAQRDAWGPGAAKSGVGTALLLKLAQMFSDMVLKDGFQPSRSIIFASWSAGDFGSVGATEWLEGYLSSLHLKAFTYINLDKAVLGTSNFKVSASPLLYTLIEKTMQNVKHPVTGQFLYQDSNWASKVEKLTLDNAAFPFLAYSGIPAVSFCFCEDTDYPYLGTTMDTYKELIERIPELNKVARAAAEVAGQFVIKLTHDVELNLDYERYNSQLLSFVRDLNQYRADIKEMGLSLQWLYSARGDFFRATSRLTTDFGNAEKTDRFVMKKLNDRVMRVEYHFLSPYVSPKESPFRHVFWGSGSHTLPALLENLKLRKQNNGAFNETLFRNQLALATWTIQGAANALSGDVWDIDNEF

cyno TfR extracellular domain (analogous construct to human TfR ecd) (cynomolgus monkey), sequence (Q5RDH6 other isoform, or with tags, fused parts or gaps): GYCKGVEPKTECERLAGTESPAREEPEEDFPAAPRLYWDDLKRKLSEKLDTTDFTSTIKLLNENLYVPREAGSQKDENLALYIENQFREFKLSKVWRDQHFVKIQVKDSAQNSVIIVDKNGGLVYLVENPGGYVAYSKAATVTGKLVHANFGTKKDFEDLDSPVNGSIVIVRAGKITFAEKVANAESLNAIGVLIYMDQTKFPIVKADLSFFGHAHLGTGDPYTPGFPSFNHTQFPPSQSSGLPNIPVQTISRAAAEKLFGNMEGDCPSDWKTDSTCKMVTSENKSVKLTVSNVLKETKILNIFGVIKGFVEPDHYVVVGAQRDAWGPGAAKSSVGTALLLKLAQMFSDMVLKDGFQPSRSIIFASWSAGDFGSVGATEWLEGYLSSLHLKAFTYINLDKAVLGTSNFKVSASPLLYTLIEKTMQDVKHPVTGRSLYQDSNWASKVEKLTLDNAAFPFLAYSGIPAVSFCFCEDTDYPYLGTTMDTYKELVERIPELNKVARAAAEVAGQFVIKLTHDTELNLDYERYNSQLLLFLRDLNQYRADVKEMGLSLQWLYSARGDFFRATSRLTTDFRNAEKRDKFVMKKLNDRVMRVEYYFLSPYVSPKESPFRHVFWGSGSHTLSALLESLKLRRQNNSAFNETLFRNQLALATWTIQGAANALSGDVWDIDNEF

B1: anti-TfR^53A/BACE1 bispecific antibody (15G11.T53A arm) (bispecific antibody, part only; not given: anti-BACE1 arm and constant regions, V domains shown, not shown: another chain or arm of the molecule; a dimerising Fc or GST; small tags and cut ends)
VH: EVQLVQSGAEVKKPGASVKVSCKASGYTFTSYWMHWVRQAPGQRLEWIGEINPANGRTNYIEKFKSRATLTVDKSASTAYMELSSLRSEDTAVYYCARGTRAYHYWGQGTMVTVSS
VL: DIQMTQSPSSLSASVGDRVTITCRASDNLYSNLAWYQQKPGKSPKLLVYDATNLADGVPSRFSGSGSGTDYTLTISSLQPEDFATYYCQHFWGTPLTFGQGTKVEIK
[1]
  Kd: 143 nM
[2]
  Kd: 24 nM
